The values below come from patent US6600012.

The target of this assay is HLA.A2 on T2 mutant cells. Kind of assay: T2 cell HLA.A2 upregulation assay, flow cytometry with MA2.1. (In general: In flow cytometry, cells or beads pass a laser one at a time.)

SAPDTRPAP (modifications not checked) […, MUC-1 tandem repeat synthetic 9 mer] returned a % Change in mean channel intensity of 48%.
